# Source: publication doi:10.1101/2022.09.01.504486
# Molecular target: PfCelTOS
# Assay: cross-linking
substance,measurement,value
PfCelTOS (natural protein),stoichiometry N,2
